Reference: PMC11078644, “Nesprin-2 is a novel scaffold protein for telethonin and FHL-2 in the cardiomyocyte sarcomere” (The Journal of Biological Chemistry, 2024)

B1: HA-tagged telethonin WT, purified recombinant protein, without PKD pre-treatment [not stated] / GST-nesprin-2 SR51-53 (amino acids 6018-6354) [human] (parent)
chain 1: MATSELSCEVSEENCERREAFWAEWKDLTLSTRPEEGCSLHEEDTQRHETYHQQGQCQVLVQRSPWLMMRMGILGRGLQEYQLPYQRVLPLPIFTPAKMGATKEEREDTPIQLQELLALETALGGQCVDRQEVAEITKQLPPVVPVSKPGALRRSLSRSMSQEAQRG
chain 2: KETFAFIQQLDKNMSNLRTWLARIESELSKPVVYDVCDDQEIQKRLAEQQDLQRDIEQHSAGVESVFNICDVLLHDSDACANETECDSIQQTTRSLDRRWRNICAMSMERRMKIEETWRLWQKFLDDYSRFEDWLKSAERTAACPNSSEVLYTSAKEELKRFEAFQRQIHERLTQLELINKQYRRLARENRTDTASRLKQMVHEGNQRWDNLQRRVTAVLRRLRHFTNQREEFEGTRESILVWLTEMDLQLTNVEHFSESDADDKMRQLNGFQQEITLNTNKIDQLIVFGEQLIQKSEPLDAVLIEDELEELHRYCQEVFGRVSRFHRRLTSCTPGL

Variants of: B1
Test: GST pull-down, densitometry
Conditions: with GST-nesprin-2 SR51-53 (amino acids 6018-6354) [human]; without PKD pre-treatment (P-); n = 5; parent: 1; read off a plot

Row | ratio to parent | Variant
1 | 1.1 | chain 1 S157A S161A
